Measured values taken from patent publication US20140274782A1 (Stanford University, published 2014).

Key:
Assay in all cases: ProtoArray, GST-treated control array;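 also: human protein microarray (about 9500 recombinant proteins) incubated overnight with GST alone plus SAM cofactor as the negative control for G9a SET domain methylation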
CTSZ-Cathepsin Z = CTSZ-Cathepsin Z (human, UniProt Q9UBR2 24-303, limits assumed)
[1] = target: T1, HIC2-Hypermethylated in cancer 2 protein (human, UniProt Q96JB3 1-615, limits assumed)
T1 sequence (looked up): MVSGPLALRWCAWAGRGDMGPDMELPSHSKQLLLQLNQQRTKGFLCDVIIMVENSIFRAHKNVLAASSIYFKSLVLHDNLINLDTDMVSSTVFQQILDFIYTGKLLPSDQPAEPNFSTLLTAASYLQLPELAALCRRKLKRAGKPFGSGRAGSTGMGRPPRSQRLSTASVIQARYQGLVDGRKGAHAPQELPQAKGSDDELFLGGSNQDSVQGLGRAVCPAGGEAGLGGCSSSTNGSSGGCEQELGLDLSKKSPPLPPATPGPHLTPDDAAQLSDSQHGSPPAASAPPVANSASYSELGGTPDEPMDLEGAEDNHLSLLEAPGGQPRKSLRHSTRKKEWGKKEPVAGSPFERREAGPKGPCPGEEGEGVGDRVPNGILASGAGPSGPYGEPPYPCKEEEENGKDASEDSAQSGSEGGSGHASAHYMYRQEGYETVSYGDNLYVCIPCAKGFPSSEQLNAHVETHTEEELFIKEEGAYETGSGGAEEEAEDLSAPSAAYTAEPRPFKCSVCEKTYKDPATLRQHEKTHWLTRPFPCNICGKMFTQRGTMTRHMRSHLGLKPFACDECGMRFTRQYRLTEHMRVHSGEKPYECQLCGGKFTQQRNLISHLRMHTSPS

[2] = target: T2, ZBP1-Z-DNA binding protein 1 (ZBP1) (human, UniProt Q9H171 1-429, limits assumed)
T2 sequence (looked up): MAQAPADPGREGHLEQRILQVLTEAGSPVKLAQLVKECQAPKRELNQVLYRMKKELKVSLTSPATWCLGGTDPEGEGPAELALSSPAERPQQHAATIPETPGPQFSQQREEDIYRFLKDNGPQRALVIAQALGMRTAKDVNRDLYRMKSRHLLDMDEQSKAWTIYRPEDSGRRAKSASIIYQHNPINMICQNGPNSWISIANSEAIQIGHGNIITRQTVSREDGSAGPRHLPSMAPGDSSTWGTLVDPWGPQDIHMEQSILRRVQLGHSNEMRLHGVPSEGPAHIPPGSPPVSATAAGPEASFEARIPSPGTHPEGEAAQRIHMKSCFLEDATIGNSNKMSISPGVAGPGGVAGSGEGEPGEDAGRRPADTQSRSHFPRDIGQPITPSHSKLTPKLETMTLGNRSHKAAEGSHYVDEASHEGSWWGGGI

[3] = target: T3, C11orf73-chromosome 11 open reading frame 73 (C11orf73) (human, UniProt Q53FT3 1-197)
T3 sequence (looked up): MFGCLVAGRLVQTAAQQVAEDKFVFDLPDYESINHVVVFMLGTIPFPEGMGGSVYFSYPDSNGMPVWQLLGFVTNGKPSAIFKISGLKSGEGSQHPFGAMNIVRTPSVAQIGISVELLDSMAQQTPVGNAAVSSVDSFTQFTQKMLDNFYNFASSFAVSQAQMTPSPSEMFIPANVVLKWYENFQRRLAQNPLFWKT

[4] = target: T4, MOBKL3-Mps one binder kinase activator-like 3 (human, UniProt Q9Y3A3 1-225, limits assumed)
T4 sequence (looked up): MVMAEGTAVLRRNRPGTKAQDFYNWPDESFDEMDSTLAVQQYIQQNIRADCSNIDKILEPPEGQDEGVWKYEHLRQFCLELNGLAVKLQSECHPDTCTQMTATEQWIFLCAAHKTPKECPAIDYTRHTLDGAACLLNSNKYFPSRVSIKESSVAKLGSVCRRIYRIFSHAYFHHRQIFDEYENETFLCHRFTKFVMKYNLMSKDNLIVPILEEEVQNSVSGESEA

[5] = target: T5, CSF3-Granulocyte colony-stimulating factor (human, UniProt P09919 31-207, limits assumed)
T5 sequence (looked up): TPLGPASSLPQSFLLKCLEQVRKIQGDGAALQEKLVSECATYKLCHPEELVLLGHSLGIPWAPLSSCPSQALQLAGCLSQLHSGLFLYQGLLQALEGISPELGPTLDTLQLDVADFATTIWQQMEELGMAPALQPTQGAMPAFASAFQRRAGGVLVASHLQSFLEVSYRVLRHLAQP

[6] = target: T6, SEC22B-Vesicle-trafficking protein SEC22b (human, UniProt O75396 1-215)
T6 sequence (looked up): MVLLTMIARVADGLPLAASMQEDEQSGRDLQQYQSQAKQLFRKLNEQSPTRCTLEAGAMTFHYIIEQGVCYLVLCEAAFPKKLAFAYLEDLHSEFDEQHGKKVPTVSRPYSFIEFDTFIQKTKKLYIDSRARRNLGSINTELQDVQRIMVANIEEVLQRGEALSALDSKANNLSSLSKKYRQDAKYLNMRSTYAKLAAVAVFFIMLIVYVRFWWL

[7] = target: CA13-carbonic anhydrase XIII (CA13) (human, UniProt Q8N1Q1 1-262)
CA13-carbonic anhydrase XIII (CA13), sequence (Q8N1Q1 whole entry): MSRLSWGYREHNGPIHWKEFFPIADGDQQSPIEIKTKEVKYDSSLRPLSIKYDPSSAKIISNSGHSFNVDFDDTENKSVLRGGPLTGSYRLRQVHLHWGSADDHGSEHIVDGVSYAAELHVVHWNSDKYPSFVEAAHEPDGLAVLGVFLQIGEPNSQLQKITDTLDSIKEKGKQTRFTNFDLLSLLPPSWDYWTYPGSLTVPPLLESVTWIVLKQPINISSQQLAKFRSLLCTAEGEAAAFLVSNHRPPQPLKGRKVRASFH

[8] = target: T7, GPX1-glutathione peroxidase 1 (GPX1) (human, UniProt P07203 1-203, limits assumed)
T7 sequence (looked up): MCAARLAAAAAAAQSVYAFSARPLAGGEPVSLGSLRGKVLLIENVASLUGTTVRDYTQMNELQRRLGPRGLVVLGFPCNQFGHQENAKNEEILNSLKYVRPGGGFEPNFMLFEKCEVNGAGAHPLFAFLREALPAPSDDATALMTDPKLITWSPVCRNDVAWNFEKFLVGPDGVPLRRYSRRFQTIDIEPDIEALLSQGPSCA

CTSZ-Cathepsin Z, sequence (Q9UBR2 24-303 limits assumed): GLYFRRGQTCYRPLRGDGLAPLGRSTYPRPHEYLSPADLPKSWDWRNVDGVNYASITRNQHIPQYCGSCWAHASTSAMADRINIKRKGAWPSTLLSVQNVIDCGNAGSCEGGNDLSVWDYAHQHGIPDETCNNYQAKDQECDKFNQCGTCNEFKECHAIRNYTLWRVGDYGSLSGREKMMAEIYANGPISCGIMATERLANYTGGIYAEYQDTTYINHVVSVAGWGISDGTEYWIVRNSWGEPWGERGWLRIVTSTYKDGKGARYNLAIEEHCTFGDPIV

B1: 3× Flag-3×MBT (designed binder)
chain: EEWSSSQPATGEKKECWSWESYLEEQKAITAPVSLFQDSQAVTHNKNGFKLGMKLEGIDPQHPSMYFILTVAEVCGYRLRLHFDGYSECHDFWVNANSPDIHPAGWFEKTGHKLQPPKGYKEEEFSWSQYLRSTRAQAAPKHLFVSQSHSPPPLGFQVGMKLEAVDRMNPSLVCVASVTDVVDSRFLVHFDNWDDTYDYWCDPSSPYIHPVGWCQKQGKPLTPPQDYPDPDNFCWEKYLEETGASAVPTWAFKVRPPHSFLVNMKLEAVDRRNPALIRVASVEDVEDHRIKIHFDGWSHGYDFWIDADHPDIHPAGWCSKTGHPLQPPLGPREPSSASPGG
notes: also called Flag-tagged 3×MBT; 3xFlag-3xMBT; not shown: made by PreScission cleavage of GST-3× Flag-3×MBT
GST Average SNR (CTSZ-Cathepsin Z): 1.28 | GST Average SNR [1]: 0.588 | GST Average SNR [2]: 0.628 | GST Average SNR [3]: -1.4 | GST Average SNR [4]: -0.451 | GST Average SNR [5]: 1.27 | GST Average SNR [6]: -0.797 | GST Average SNR [7]: 0.728 | GST Average SNR [8]: 1.22
